Data as given in the Human Domainome abundance scans (Beltran et al. 2025).
± gives the uncertainty stated by the source.

B1: Far upstream element-binding protein 3, residues 75 to 150; numbered along this chain, Q96I24 (parent)
chain: RTVITEEFKVPDKMVGFIIGRGGEQISRIQAESGCKIQIASESSGIPERPCVLTGTPESIEQAKRLLGQIVDRCRN
B2: Storkhead-box protein 2, residues 64 to 141; numbered along this chain, Q9P2F5 (parent)
chain: SPISQSQFIPLGEILCLAISAMNSARKPVTQEALMEHLTTCFPGVPTPSQEILRHTLNTLVRERKIYPTPDGYFIVTP

Variants of: B1
Assay: abundance fitness (aPCA) (normalised: wild type 0, dead -1); higher = more abundant; growth selection in yeast, the domain comes from the species named
Details: Homo sapiens

Abundance fitness of substitutions, site by site:
N76: Y -0.027 ± 0.095; T -0.057 ± 0.061; W -0.092 ± 0.056

Variants of: B2
Assay: as above
Details: Homo sapiens

Abundance fitness: each site, then its substitutions
A21: K 0.051 ± 0.046; I -0.24 ± 0.18; D 0.002 ± 0.079; N 0.235 ± 0.16; F -0.212 ± 0.091; C -0.137 ± 0.07; H -0.181 ± 0.17; L -0.305 ± 0.051; G -0.063 ± 0.047; M -0.235 ± 0.079
Q5: G -0.12 ± 0.037; T 0.049 ± 0.055; P -0.125 ± 0.055; C -0.025 ± 0.063; R -0.068 ± 0.037; H -0.099 ± 0.081; D -0.021 ± 0.079; I -0.052 ± 0.078; F -0.109 ± 0.074; K 0.012 ± 0.09; Y -0.055 ± 0.083; S -0.007 ± 0.035; A 0.037 ± 0.041; W -0.276 ± 0.051; L -0.079 ± 0.043; E -0.015 ± 0.088
S1: V -0.354 ± 0.07; M -0.227 ± 0.15; G -0.263 ± 0.054; D -0.027 ± 0.19; P -0.469 ± 0.15; T -0.486 ± 0.14; C -0.178 ± 0.067; W -0.83 ± 0.12; R -0.344 ± 0.1; F -0.092 ± 0.084; L -0.207 ± 0.065; A -0.395 ± 0.083; E -0.581 ± 0.24; H -0.103 ± 0.2; K -0.717 ± 0.15; Y -0.122 ± 0.093
F8: D -0.027 ± 0.12; G -0.103 ± 0.052; K -0.137 ± 0.11; S 0.017 ± 0.058; N -0.021 ± 0.16; P -0.081 ± 0.08; C -0.104 ± 0.071; Q -0.196 ± 0.075; W -0.016 ± 0.058; E -0.012 ± 0.082; T -0.08 ± 0.096; I -0.017 ± 0.075; H 0.015 ± 0.13; A -0.055 ± 0.07; V -0.063 ± 0.043; Y -0.326 ± 0.14; M -0.102 ± 0.079; R -0.059 ± 0.03; L -0.135 ± 0.054
L17: H 0.034 ± 0.11; V -0.059 ± 0.043; E 0.039 ± 0.059; A 0.005 ± 0.04; N 0.079 ± 0.087; S 0.008 ± 0.042; D -0.069 ± 0.081; F -0.096 ± 0.093; W -0.129 ± 0.05; G -0.016 ± 0.036; I 0.133 ± 0.2; T 0.043 ± 0.066; C -0.116 ± 0.074; P -0.092 ± 0.052; M -0.041 ± 0.07
I3: G -0.046 ± 0.028; Y -0.158 ± 0.088; Q -0.12 ± 0.048; M -0.047 ± 0.058; F -0.255 ± 0.084; A -0.075 ± 0.039; E 0.041 ± 0.06; N -0.207 ± 0.063; R -0.022 ± 0.035; P -0.106 ± 0.047; H -0.017 ± 0.062; S 0.004 ± 0.038; V 0.001 ± 0.034; C -0.16 ± 0.057; T -0.024 ± 0.072; W -0.44 ± 0.048
S4: H 0.008 ± 0.11; R -0.155 ± 0.043; P 0.007 ± 0.045; M 0.002 ± 0.066; N -0.038 ± 0.1; A -0.098 ± 0.039; T -0.006 ± 0.046; Y -0.076 ± 0.071; V -0.056 ± 0.042; F -0.151 ± 0.052; G -0.17 ± 0.032; I -0.079 ± 0.073; C -0.013 ± 0.068; K -0.154 ± 0.093; L -0.026 ± 0.041; D 0.104 ± 0.093; W -0.161 ± 0.061
L11: Y -0.008 ± 0.1; A -0.258 ± 0.033; C -0.62 ± 0.24; R -0.428 ± 0.05; F 0.054 ± 0.12; T -0.278 ± 0.082; S -0.396 ± 0.056; P -0.299 ± 0.074; V -0.163 ± 0.064; K -0.51 ± 0.1; I -0.096 ± 0.22; H -0.051 ± 0.22; G -0.277 ± 0.05; N -0.466 ± 0.21; D -0.316 ± 0.13; W -0.418 ± 0.076; E -0.325 ± 0.091; Q -0.32 ± 0.095
P10: V 0.171 ± 0.063; W 0.175 ± 0.076; D -0.135 ± 0.21; H -0.101 ± 0.099; C -0.136 ± 0.12; N 0.108 ± 0.12; L 0.085 ± 0.047; I 0.302 ± 0.4; R 0.089 ± 0.04; Y 0.003 ± 0.23; K 0.016 ± 0.11; M 0.048 ± 0.17; S -0.067 ± 0.047; T -0.024 ± 0.11; E -0.043 ± 0.072; F -0.04 ± 0.093; A -0.027 ± 0.051
L15: A -0.034 ± 0.15; H -0.796 ± 0.31; M -0.049 ± 0.075; I -0.061 ± 0.097; K -0.572 ± 0.15; S -0.235 ± 0.042; R -0.977 ± 0.079; G -1.06 ± 0.13; V 0.039 ± 0.061; N -0.613 ± 0.32; E -0.67 ± 0.12; Y -0.252 ± 0.11; T 0.059 ± 0.048; P -0.983 ± 0.098; Q -1.03 ± 0.15
S20: Q 0.019 ± 0.087; W -0.419 ± 0.053; N 0.076 ± 0.16; G -0.039 ± 0.037; M -0.115 ± 0.067; R -0.025 ± 0.04; A -0.104 ± 0.039; L -0.172 ± 0.024; I -0.359 ± 0.099; D -0.116 ± 0.17; H -0.219 ± 0.12; K 0.018 ± 0.075; V -0.171 ± 0.044; T -0.006 ± 0.06; P -0.405 ± 0.074; E -0.022 ± 0.069; Y -0.181 ± 0.096
Q7: I -0.068 ± 0.099; G 0.063 ± 0.033; H -0.122 ± 0.085; F -0.065 ± 0.067; P -0.021 ± 0.045; E 0.023 ± 0.17; C -0.154 ± 0.1; W -0.152 ± 0.049; D -0.032 ± 0.17; A 0.043 ± 0.053; T -0.02 ± 0.072; V -0.064 ± 0.041; S 0.036 ± 0.049; N -0.015 ± 0.16; L -0.085 ± 0.052; K -0.051 ± 0.086
I19: Y -1.26 ± 0.33; E -1 ± 0.15; G -1.07 ± 0.12; A -0.341 ± 0.055; P -0.948 ± 0.12; V -0.154 ± 0.051; Q -1.15 ± 0.21; L -0.23 ± 0.047; R -1.01 ± 0.088; H -0.852 ± 0.44; F -0.317 ± 0.15; C -0.21 ± 0.067; T -0.224 ± 0.06; W -0.825 ± 0.06; S -0.823 ± 0.062
S6: N -0.033 ± 0.078; T -0.079 ± 0.058; Q -0.069 ± 0.087; Y -0.206 ± 0.078; R -0.062 ± 0.034; W -0.246 ± 0.056; E -0.046 ± 0.061; M -0.123 ± 0.079; H -0.334 ± 0.26; V -0.171 ± 0.035; D 0.027 ± 0.069; F -0.091 ± 0.079; G -0.041 ± 0.032; P -0.07 ± 0.055; K -0.126 ± 0.075; I -0.148 ± 0.061
C16: V -0.074 ± 0.051; Y -0.021 ± 0.079; N -0.08 ± 0.13; M -0.04 ± 0.088; T -0.027 ± 0.097; S -0.091 ± 0.06; P -0.124 ± 0.098; E -0.148 ± 0.087; L -0.019 ± 0.041; K -0.155 ± 0.12; F -0.074 ± 0.11; R -0.061 ± 0.051; D -0.353 ± 0.084; Q 0.072 ± 0.19; A -0.197 ± 0.069; W -0.052 ± 0.076; G -0.249 ± 0.033; I -0.01 ± 0.1
I14: E -0.089 ± 0.11; N -0.384 ± 0.16; L -0.035 ± 0.067; V -0.031 ± 0.068; M 0.024 ± 0.15; T -0.034 ± 0.063; C -0.109 ± 0.17; Q -0.118 ± 0.13; S 0.01 ± 0.057; P -0.032 ± 0.085; K -0.039 ± 0.2; D -0.258 ± 0.41; F -0.228 ± 0.092; Y -0.108 ± 0.14; H 0.033 ± 0.28; A -0.003 ± 0.057; G -0.097 ± 0.059; W -0.105 ± 0.079; R -0.073 ± 0.059
P2: A -0.084 ± 0.055; I -0.037 ± 0.14; S 0.002 ± 0.051; W -0.102 ± 0.07; L 0.046 ± 0.047; V 0.001 ± 0.052; G -0.095 ± 0.042; C -0.15 ± 0.14; D 0.124 ± 0.095; M 0.013 ± 0.065; R 0.019 ± 0.029; E -0.18 ± 0.08; Y 0.107 ± 0.1; Q 0.103 ± 0.067; N 0.188 ± 0.17; K -0.137 ± 0.081; H 0.051 ± 0.12
A18: Q -0.26 ± 0.13; G -0.095 ± 0.048; K -0.282 ± 0.11; N -0.376 ± 0.21; F -0.446 ± 0.098; E -0.102 ± 0.081; I -0.308 ± 0.16; M -0.593 ± 0.17; P -0.887 ± 0.1; V -0.163 ± 0.062; W -0.496 ± 0.062; D -1.1 ± 0.38; C -0.001 ± 0.076; H -0.125 ± 0.16; T -0.099 ± 0.081; S -0.197 ± 0.066; R -0.148 ± 0.049
I9: R 0.03 ± 0.058; C 0.067 ± 0.059; K 0.044 ± 0.11; G 0.025 ± 0.036; H -0.243 ± 0.48; P 0.046 ± 0.071; E 0.074 ± 0.1; Y -0.082 ± 0.1; V 0.011 ± 0.036; L 0.03 ± 0.041; D -0.035 ± 0.1; N 0.131 ± 0.1; A 0.005 ± 0.066; Q 0.101 ± 0.14; T 0.007 ± 0.06; W -0.011 ± 0.063; M 0.062 ± 0.084
E13: K -0.039 ± 0.1; T -0.016 ± 0.082; C -0.152 ± 0.081; W -0.331 ± 0.068; G -0.009 ± 0.042; F -0.349 ± 0.081; Q 0.021 ± 0.067; L -0.34 ± 0.05; S -0.039 ± 0.057; P -0.059 ± 0.085; R 0.078 ± 0.046; H -0.061 ± 0.16; M -0.206 ± 0.1; D -0.001 ± 0.11; N 0.02 ± 0.11; V -0.241 ± 0.05
G12: A -0.3 ± 0.29; D -0.127 ± 0.33; C -0.135 ± 0.32; V -0.452 ± 0.2
